Target: recombinant human PDGF-BB (human, UniProt P01127 82-190)
Experiment: cell-based or functional assay

Sequence of recombinant human PDGF-BB (P01127 82-190 limits assumed): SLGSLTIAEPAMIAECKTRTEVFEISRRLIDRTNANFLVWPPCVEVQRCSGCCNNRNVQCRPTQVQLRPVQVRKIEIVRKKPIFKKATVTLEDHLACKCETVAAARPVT

| Binder | NIH-3T3 hPDGF-BB Potency IC50 |
| --- | --- |
| CODV010 cross-over DVD-Ig (PR-1571823) (bispecific antibody, human IgG1, kappa, L234A L235A) heavy: EVTLRESGPALVKPTQTLTLTCTFSGFSLSTYGMGVGWIRQPPGKALEWLANIWWDDDKYYNPSLKNRLTISKDTSKNQVVLTMTNMDPVDTATYYCARIESIGTTYSFDYWGQGTMVTVSSGEVQLVQSGSELKKPGASVKVSCKASGYTFTNYGMYWVRQAPGQGLEWMGWINTETGKPTYADDFKGRFVFSLDTSVSTAYLQISSLKAEDTAVYYCARTNYYYRSYIFYFDYWGQGTMVTVSSGGASTKGPSVFPLAPSSKSTSGGTAALGCLVKDYFPEPVTVSWNSGALTSGVHTFPAVLQSSGLYSLSSVVTVPSSSLGTQTYICNVNHKPSNTKVDKKVEPKSCDKTHTCPPCPAPEAAGGPSVFLFPPKPKDTLMISRTPEVTCVVVDVSHEDPEVKFNWYVDGVEVHNAKTKPREEQYNSTYRVVSVLTVLHQDWLNGKEYKCKVSNKALPAPIEKTISKAKGQPREPQVYTLPPSREEMTKNQVSLTCLVKGFYPSDIAVEWESNGQPENNYKTTPPVLDSDGSFFLYSKLTVDKSRWQQGNVFSCSVMHEALHNAYTQKSLSLSPGK light: DTVLTQSPATLSLSPGERATLSCRASESVSTHMHWYQQKPGQAPRLLIYGASNLESGVPARFSGSGSGTDFTLTISSLEPEDFAVYFCQQSWNDPFTFGQGTKLEIKGGGSGGGEFVLTQSPGTLSLSPGERATLSCERSSGDIGDSYVSWYQQKPGQAPRLVIYADDQRPSGIPDRFSGSGSGTDFTLTISRLEPEDFAVYYCQSYDINIDIVFGGGTKVEIKGGGSGRTVAAPSVFIFPPSDEQLKSGTASVVCLLNNFYPREAKVQWKVDNALQSGNSQESVTEQDSKDSTYSLSSTLTLSKADYEKHKVYACEVTHQGLSSPVTKSFNRGEC | 2.14 nM |
| 4G8.3-SL-9E8.4E DVD-Ig (PR-1575834) (bispecific antibody, human IgG1, kappa, L234A L235A) heavy: EVQLVQSGSELKKPGASVKVSCKASGYTFTNYGMYWVRQAPGQGLEWMGWINTETGKPTYADDFKGRFVFSLDTSVSTAYLQISSLKAEDTAVYYCARTNYYYRSYIFYFDYWGQGTMVTVSSASTKGPEVTLRESGPALVKPTQTLTLTCTFSGFSLSTYGMGVGWIRQPPGKALEWLANIWWDDDKYYNPSLKNRLTISKDTSKNQVVLTMTNMDPVDTATYYCARIESIGTTYSFDYWGQGTMVTVSSASTKGPSVFPLAPSSKSTSGGTAALGCLVKDYFPEPVTVSWNSGALTSGVHTFPAVLQSSGLYSLSSVVTVPSSSLGTQTYICNVNHKPSNTKVDKKVEPKSCDKTHTCPPCPAPEAAGGPSVFLFPPKPKDTLMISRTPEVTCVVVDVSHEDPEVKFNWYVDGVEVHNAKTKPREEQYNSTYRVVSVLTVLHQDWLNGKEYKCKVSNKALPAPIEKTISKAKGQPREPQVYTLPPSREEMTKNQVSLTCLVKGFYPSDIAVEWESNGQPENNYKTTPPVLDSDGSFFLYSKLTVDKSRWQQGNVFSCSVMHEALHNAYTQKSLSLSPGK light: DTVLTQSPATLSLSPGERATLSCRASESVSTHMHWYQQKPGQAPRLLIYGASNLESGVPARFSGSGSGTDFTLTISSLEPEDFAVYFCQQSWNDPFTFGQGTKLEIKRTVAAPSVFIFPPEFVLTQSPGTLSLSPGERATLSCERSSGDIGESYVSWYQQKPGQAPRLVIYADDQRPSGIPDRFSGSGSGTDFTLTISRLEPEDFAVYYCQSYDINIDIVFGGGTKVEIKRTVAAPSVFIFPPSDEQLKSGTASVVCLLNNFYPREAKVQWKVDNALQSGNSQESVTEQDSKDSTYSLSSTLTLSKADYEKHKVYACEVTHQGLSSPVTKSFNRGEC | 0.572 nM |
| CODV011 cross-over DVD-Ig (PR-1575521) (bispecific antibody, human IgG1, kappa, L234A L235A) heavy: EVQLVQSGSELKKPGASVKVSCKASGYTFTNYGMYWVRQAPGQGLEWMGWINTETGKPTYADDFKGRFVFSLDTSVSTAYLQISSLKAEDTAVYYCARTNYYYRSYIFYFDYWGQGTMVTVSSGGGGSGGGGSEFVLTQSPGTLSLSPGERATLSCERSSGDIGDSYVSWYQQKPGQAPRLVIYADDQRPSGIPDRFSGSGSGTDFTLTISRLEPEDFAVYYCQSYDINIDIVFGGGTKVEIKGGGSGASTKGPSVFPLAPSSKSTSGGTAALGCLVKDYFPEPVTVSWNSGALTSGVHTFPAVLQSSGLYSLSSVVTVPSSSLGTQTYICNVNHKPSNTKVDKKVEPKSCDKTHTCPPCPAPEAAGGPSVFLFPPKPKDTLMISRTPEVTCVVVDVSHEDPEVKFNWYVDGVEVHNAKTKPREEQYNSTYRVVSVLTVLHQDWLNGKEYKCKVSNKALPAPIEKTISKAKGQPREPQVYTLPPSREEMTKNQVSLTCLVKGFYPSDIAVEWESNGQPENNYKTTPPVLDSDGSFFLYSKLTVDKSRWQQGNVFSCSVMHEALHNAYTQKSLSLSPGK light: EVTLRESGPALVKPTQTLTLTCTFSGFSLSTYGMGVGWIRQPPGKALEWLANIWWDDDKYYNPSLKNRLTISKDTSKNQVVLTMTNMDPVDTATYYCARIESIGTTYSFDYWGQGTMVTVSSGGGGSGGGGSDTVLTQSPATLSLSPGERATLSCRASESVSTHMHWYQQKPGQAPRLLIYGASNLESGVPARFSGSGSGTDFTLTISSLEPEDFAVYFCQQSWNDPFTFGQGTKLEIKGGGSGRTVAAPSVFIFPPSDEQLKSGTASVVCLLNNFYPREAKVQWKVDNALQSGNSQESVTEQDSKDSTYSLSSTLTLSKADYEKHKVYACEVTHQGLSSPVTKSFNRGEC | 0.043 nM |

Next, values leading:

| NIH-3T3 hPDGF-BB Potency IC50 | Binder |
| --- | --- |
| 0.182 nM | CODV012 cross-over DVD-Ig (PR-1571824) (bispecific antibody, human IgG1, kappa, L234A L235A) heavy: EVQLVQSGSELKKPGASVKVSCKASGYTFTNYGMYWVRQAPGQGLEWMGWINTETGKPTYADDFKGRFVFSLDTSVSTAYLQISSLKAEDTAVYYCARTNYYYRSYIFYFDYWGQGTMVTVSSGGGGSGGGEFVLTQSPGTLSLSPGERATLSCERSSGDIGDSYVSWYQQKPGQAPRLVIYADDQRPSGIPDRFSGSGSGTDFTLTISRLEPEDFAVYYCQSYDINIDIVFGGGTKVEIKGGGSGASTKGPSVFPLAPSSKSTSGGTAALGCLVKDYFPEPVTVSWNSGALTSGVHTFPAVLQSSGLYSLSSVVTVPSSSLGTQTYICNVNHKPSNTKVDKKVEPKSCDKTHTCPPCPAPEAAGGPSVFLFPPKPKDTLMISRTPEVTCVVVDVSHEDPEVKFNWYVDGVEVHNAKTKPREEQYNSTYRVVSVLTVLHQDWLNGKEYKCKVSNKALPAPIEKTISKAKGQPREPQVYTLPPSREEMTKNQVSLTCLVKGFYPSDIAVEWESNGQPENNYKTTPPVLDSDGSFFLYSKLTVDKSRWQQGNVFSCSVMHEALHNAYTQKSLSLSPGK light: EVTLRESGPALVKPTQTLTLTCTFSGFSLSTYGMGVGWIRQPPGKALEWLANIWWDDDKYYNPSLKNRLTISKDTSKNQVVLTMTNMDPVDTATYYCARIESIGTTYSFDYWGQGTMVTVSSGGGGSGGGDTVLTQSPATLSLSPGERATLSCRASESVSTHMHWYQQKPGQAPRLLIYGASNLESGVPARFSGSGSGTDFTLTISSLEPEDFAVYFCQQSWNDPFTFGQGTKLEIKGGGSGRTVAAPSVFIFPPSDEQLKSGTASVVCLLNNFYPREAKVQWKVDNALQSGNSQESVTEQDSKDSTYSLSSTLTLSKADYEKHKVYACEVTHQGLSSPVTKSFNRGEC |
| 0.11 nM | CODV013 cross-over DVD-Ig (PR-1571825) (bispecific antibody, human IgG1, kappa, L234A L235A) heavy: EVQLVQSGSELKKPGASVKVSCKASGYTFTNYGMYWVRQAPGQGLEWMGWINTETGKPTYADDFKGRFVFSLDTSVSTAYLQISSLKAEDTAVYYCARTNYYYRSYIFYFDYWGQGTMVTVSSGGGGSGGGEFVLTQSPGTLSLSPGERATLSCERSSGDIGDSYVSWYQQKPGQAPRLVIYADDQRPSGIPDRFSGSGSGTDFTLTISRLEPEDFAVYYCQSYDINIDIVFGGGTKVEIKGGSASTKGPSVFPLAPSSKSTSGGTAALGCLVKDYFPEPVTVSWNSGALTSGVHTFPAVLQSSGLYSLSSVVTVPSSSLGTQTYICNVNHKPSNTKVDKKVEPKSCDKTHTCPPCPAPEAAGGPSVFLFPPKPKDTLMISRTPEVTCVVVDVSHEDPEVKFNWYVDGVEVHNAKTKPREEQYNSTYRVVSVLTVLHQDWLNGKEYKCKVSNKALPAPIEKTISKAKGQPREPQVYTLPPSREEMTKNQVSLTCLVKGFYPSDIAVEWESNGQPENNYKTTPPVLDSDGSFFLYSKLTVDKSRWQQGNVFSCSVMHEALHNAYTQKSLSLSPGK light: EVTLRESGPALVKPTQTLTLTCTFSGFSLSTYGMGVGWIRQPPGKALEWLANIWWDDDKYYNPSLKNRLTISKDTSKNQVVLTMTNMDPVDTATYYCARIESIGTTYSFDYWGQGTMVTVSSGGGGSGGGDTVLTQSPATLSLSPGERATLSCRASESVSTHMHWYQQKPGQAPRLLIYGASNLESGVPARFSGSGSGTDFTLTISSLEPEDFAVYFCQQSWNDPFTFGQGTKLEIKGGGSGRTVAAPSVFIFPPSDEQLKSGTASVVCLLNNFYPREAKVQWKVDNALQSGNSQESVTEQDSKDSTYSLSSTLTLSKADYEKHKVYACEVTHQGLSSPVTKSFNRGEC |
| > 5 nM | CODV009 cross-over DVD-Ig (PR-1571821) (bispecific antibody, human IgG1, kappa, L234A L235A) heavy: EVQLVQSGSELKKPGASVKVSCKASGYTFTNYGMYWVRQAPGQGLEWMGWINTETGKPTYADDFKGRFVFSLDTSVSTAYLQISSLKAEDTAVYYCARTNYYYRSYIFYFDYWGQGTMVTVSSGEVTLRESGPALVKPTQTLTLTCTFSGFSLSTYGMGVGWIRQPPGKALEWLANIWWDDDKYYNPSLKNRLTISKDTSKNQVVLTMTNMDPVDTATYYCARIESIGTTYSFDYWGQGTMVTVSSGGASTKGPSVFPLAPSSKSTSGGTAALGCLVKDYFPEPVTVSWNSGALTSGVHTFPAVLQSSGLYSLSSVVTVPSSSLGTQTYICNVNHKPSNTKVDKKVEPKSCDKTHTCPPCPAPEAAGGPSVFLFPPKPKDTLMISRTPEVTCVVVDVSHEDPEVKFNWYVDGVEVHNAKTKPREEQYNSTYRVVSVLTVLHQDWLNGKEYKCKVSNKALPAPIEKTISKAKGQPREPQVYTLPPSREEMTKNQVSLTCLVKGFYPSDIAVEWESNGQPENNYKTTPPVLDSDGSFFLYSKLTVDKSRWQQGNVFSCSVMHEALHNAYTQKSLSLSPGK light: EFVLTQSPGTLSLSPGERATLSCERSSGDIGDSYVSWYQQKPGQAPRLVIYADDQRPSGIPDRFSGSGSGTDFTLTISRLEPEDFAVYYCQSYDINIDIVFGGGTKVEIKGGGSGGGDTVLTQSPATLSLSPGERATLSCRASESVSTHMHWYQQKPGQAPRLLIYGASNLESGVPARFSGSGSGTDFTLTISSLEPEDFAVYFCQQSWNDPFTFGQGTKLEIKGGGSGRTVAAPSVFIFPPSDEQLKSGTASVVCLLNNFYPREAKVQWKVDNALQSGNSQESVTEQDSKDSTYSLSSTLTLSKADYEKHKVYACEVTHQGLSSPVTKSFNRGEC |
